Consider three molecules from article PMC8106667 (Molecular cell, 2021).

The labels stand for the following.
B1: ORC1-180-240-HIS6 wild type (domain or fragment, human, UniProt Q13415 180-240, looked up)
chain: QESAAKCQKPVRAKSKSAESPSWTPAEHVAKRIESRHSASKSRQTPTHPLTPRARKRLELG
B3: GST-CDC6 wild type, full length (natural protein, human, UniProt Q99741 1-560, looked up)
chain: MPQTRSQAQATISFPKRKLSRALNKAKNSSDAKLEPTNVQTVTCSPRVKALPLSPRKRLGDDNLCNTPHLPPCSPPKQGKKENGPPHSHTLKGRRLVFDNQLTIKSPSKRELAKVHQNKILSSVRKSQEITTNSEQRCPLKKESACVRLFKQEGTCYQQAKLVLNTAVPDRLPAREREMDVIRNFLREHICGKKAGSLYLSGAPGTGKTACLSRILQDLKKELKGFKTIMLNCMSLRTAQAVFPAIAQEICQEEVSRPAGKDMMRKLEKHMTAEKGPMIVLVLDEMDQLDSKGQDVLYTLFEWPWLSNSHLVLIGIANTLDLTDRILPRLQAREKCKPQLLNFPPYTRNQIVTILQDRLNQVSRDQVLDNAAVQFCARKVSAVSGDVRKALDVCRRAIEIVESDVKSQTILKPLSECKSPSEPLIPKRVGLIHISQVISEVDGNRMTLSQEGAQDSFPLQQKILVCSLMLLIRQLKIKEVTLGKLYEAYSKVCRKQQVAAVDQSECLSLSGLLEARGILGLKRNKETRLTKVFFKIEEKEIEHALKDKALIGNILATGLP

What all share (test): pull-down
In experiment [1] the target is B3.
The target of experiment [2] is T1, MBP-ORC1-230-400 wild type (human, UniProt Q13415 230-400).
T1 sequence (looked up): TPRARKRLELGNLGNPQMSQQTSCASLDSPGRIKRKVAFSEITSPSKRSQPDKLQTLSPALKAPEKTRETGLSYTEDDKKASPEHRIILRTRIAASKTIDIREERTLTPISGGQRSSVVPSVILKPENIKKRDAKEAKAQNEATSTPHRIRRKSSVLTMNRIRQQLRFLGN

In experiment [3] the target is T2, MBP-ORC1-230-400 A-A (Cy motif mutant) (human, UniProt Q13415 230-400, K235A | L237A).
T2 sequence (looked up): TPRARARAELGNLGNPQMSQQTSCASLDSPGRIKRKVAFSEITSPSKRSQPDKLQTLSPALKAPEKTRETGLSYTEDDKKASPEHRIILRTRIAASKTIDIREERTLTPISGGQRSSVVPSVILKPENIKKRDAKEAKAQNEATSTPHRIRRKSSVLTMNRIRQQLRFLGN

For experiment [4], the target named is B1.
Experiment [5] concerns the target T3, MBP-ORC1 R105Q (human, UniProt Q13415 1-861, R105Q).
T3 sequence (looked up): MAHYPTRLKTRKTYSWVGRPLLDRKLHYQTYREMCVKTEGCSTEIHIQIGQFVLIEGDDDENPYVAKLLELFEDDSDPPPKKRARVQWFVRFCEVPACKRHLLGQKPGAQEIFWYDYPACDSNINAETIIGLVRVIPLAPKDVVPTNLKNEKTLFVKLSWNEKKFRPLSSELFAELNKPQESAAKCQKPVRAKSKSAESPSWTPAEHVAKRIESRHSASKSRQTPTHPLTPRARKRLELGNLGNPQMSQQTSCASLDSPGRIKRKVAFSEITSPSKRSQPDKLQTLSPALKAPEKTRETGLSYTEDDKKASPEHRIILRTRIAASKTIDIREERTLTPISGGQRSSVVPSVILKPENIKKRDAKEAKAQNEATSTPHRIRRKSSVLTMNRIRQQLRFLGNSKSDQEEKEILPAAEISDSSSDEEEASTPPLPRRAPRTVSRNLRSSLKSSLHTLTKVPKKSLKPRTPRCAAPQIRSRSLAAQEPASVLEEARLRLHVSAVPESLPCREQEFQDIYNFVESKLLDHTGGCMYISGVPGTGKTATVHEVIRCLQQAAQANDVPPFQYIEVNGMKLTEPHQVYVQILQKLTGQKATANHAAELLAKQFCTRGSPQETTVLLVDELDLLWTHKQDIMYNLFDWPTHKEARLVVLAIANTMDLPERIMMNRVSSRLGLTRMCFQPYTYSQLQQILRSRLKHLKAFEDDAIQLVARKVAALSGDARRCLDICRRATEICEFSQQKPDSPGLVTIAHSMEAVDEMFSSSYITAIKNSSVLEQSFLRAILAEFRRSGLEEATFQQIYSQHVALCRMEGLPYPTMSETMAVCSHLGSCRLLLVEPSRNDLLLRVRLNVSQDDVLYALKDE

Experiment [6] deals with T4, MBP-ORC1-PSM123 (Phosphorylation Site Mutant, S258A, S273A and T375A) (human, UniProt Q13415 1-861, S258A | S273A | T375A).
T4 sequence (looked up): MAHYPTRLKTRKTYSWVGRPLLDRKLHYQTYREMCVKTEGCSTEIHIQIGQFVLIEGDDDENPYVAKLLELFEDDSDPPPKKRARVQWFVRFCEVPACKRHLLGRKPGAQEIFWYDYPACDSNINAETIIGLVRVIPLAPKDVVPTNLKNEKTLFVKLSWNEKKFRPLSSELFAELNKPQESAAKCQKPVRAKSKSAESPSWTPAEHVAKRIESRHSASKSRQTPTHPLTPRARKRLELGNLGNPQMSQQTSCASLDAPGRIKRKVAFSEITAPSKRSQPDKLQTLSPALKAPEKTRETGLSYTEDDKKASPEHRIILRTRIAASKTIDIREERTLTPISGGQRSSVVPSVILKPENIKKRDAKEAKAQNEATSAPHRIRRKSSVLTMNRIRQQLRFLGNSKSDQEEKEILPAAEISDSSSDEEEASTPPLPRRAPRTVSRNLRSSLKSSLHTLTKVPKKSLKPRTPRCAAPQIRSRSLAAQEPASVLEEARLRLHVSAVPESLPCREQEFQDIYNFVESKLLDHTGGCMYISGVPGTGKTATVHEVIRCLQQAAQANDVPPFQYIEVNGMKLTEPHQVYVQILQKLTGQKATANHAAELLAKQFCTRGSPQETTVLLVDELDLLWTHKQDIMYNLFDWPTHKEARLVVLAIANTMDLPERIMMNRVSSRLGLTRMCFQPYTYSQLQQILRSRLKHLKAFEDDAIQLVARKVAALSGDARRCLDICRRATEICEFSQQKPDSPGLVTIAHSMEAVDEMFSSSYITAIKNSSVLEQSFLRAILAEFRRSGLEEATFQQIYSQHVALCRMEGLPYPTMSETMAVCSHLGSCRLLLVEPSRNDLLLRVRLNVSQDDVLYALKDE

The target in experiment [7] is T5, MBP-ORC2 (human, UniProt Q13416 1-577).
T5 sequence (looked up): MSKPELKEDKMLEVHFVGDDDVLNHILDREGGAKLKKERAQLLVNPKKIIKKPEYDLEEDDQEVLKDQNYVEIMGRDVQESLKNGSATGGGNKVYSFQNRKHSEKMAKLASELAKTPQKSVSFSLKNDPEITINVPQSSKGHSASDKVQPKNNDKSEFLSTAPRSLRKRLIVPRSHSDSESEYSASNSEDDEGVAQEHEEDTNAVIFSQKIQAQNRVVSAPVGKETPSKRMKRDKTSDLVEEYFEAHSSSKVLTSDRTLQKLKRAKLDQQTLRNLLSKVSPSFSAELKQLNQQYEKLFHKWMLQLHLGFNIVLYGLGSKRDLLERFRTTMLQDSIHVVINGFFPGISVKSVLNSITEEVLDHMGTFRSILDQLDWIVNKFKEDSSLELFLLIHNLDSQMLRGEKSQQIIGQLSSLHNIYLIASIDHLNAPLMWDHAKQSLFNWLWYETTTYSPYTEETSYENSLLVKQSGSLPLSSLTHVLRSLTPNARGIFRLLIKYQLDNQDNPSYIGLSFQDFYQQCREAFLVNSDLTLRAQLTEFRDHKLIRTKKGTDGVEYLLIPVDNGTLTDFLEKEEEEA

Experiment [8] concerns the target T6, MBP-ORC1 wild type, full length (human, UniProt Q13415 1-861).
T6 sequence (looked up): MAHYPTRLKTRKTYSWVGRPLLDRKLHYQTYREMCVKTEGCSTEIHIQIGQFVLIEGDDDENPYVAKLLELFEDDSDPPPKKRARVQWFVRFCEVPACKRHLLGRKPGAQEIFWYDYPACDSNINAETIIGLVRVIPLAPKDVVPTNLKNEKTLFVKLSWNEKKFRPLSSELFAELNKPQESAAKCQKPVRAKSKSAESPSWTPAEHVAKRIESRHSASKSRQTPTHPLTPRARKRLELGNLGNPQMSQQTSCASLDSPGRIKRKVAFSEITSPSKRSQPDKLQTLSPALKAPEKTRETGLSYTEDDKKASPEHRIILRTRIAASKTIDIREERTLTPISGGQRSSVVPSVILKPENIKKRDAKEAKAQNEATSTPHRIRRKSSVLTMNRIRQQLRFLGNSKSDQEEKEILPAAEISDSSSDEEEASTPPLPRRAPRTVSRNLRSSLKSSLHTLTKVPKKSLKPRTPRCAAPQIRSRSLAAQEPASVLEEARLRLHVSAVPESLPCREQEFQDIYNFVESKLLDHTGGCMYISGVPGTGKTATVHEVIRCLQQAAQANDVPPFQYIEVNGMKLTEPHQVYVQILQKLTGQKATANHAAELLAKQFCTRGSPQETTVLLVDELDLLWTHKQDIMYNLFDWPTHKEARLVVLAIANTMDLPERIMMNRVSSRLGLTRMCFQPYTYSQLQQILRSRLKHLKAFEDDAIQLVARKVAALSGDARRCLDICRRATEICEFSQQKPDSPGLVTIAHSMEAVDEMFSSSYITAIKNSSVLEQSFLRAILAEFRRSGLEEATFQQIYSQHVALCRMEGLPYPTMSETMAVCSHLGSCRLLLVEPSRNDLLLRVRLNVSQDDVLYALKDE

With B1, the binding result in experiment [1], in experiment [2] and in experiment [3] was “binds” each time.

B2: MBP-ORC1-350-400 wild type (domain or fragment, human, UniProt Q13415 350-400, looked up)
chain: SVILKPENIKKRDAKEAKAQNEATSTPHRIRRKSSVLTMNRIRQQLRFLGN
For the molecule B2, the binding result in experiment [4] is reported as “binds”.
In the case of B3, the binding result in experiment [5], in experiment [6], in experiment [7] and in experiment [8] was “binds” in each case.
